Experimental data as given in patent US20240377408A1.

How the values were obtained:
Experiment in all cases: cell-based or functional assay
M64-EAEIR = biological target: M64-EAEIR
M64-AAEIR = biological target: M64-AAEIR
M64-FAEIR = biological target: M64-FAEIR
M64-DAEIR = biological target: M64-DAEIR
M64-LAEIR = biological target: M64-LAEIR
[1] = biological target: human carbonic anhydrase 2 (wild-type hCAII) (Homo sapiens) (UniProt P00918)

| IC50 values (µM), colorimetric pNPA hydrolysis inhibition assay (M64-EAEIR) [µM] | IC50 values (µM), colorimetric pNPA hydrolysis inhibition assay (M64-AAEIR) [µM] | IC50 values (µM), colorimetric pNPA hydrolysis inhibition assay (M64-FAEIR) [µM] | IC50 values (µM), colorimetric pNPA hydrolysis inhibition assay (M64-DAEIR) [µM] | IC50 values (µM), colorimetric pNPA hydrolysis inhibition assay (M64-LAEIR) [µM] | IC50 (µM), hCAII functional assay (p-nitrophenyl acetate hydrolysis) [1] [µM] | Substance |
| --- | --- | --- | --- | --- | --- | --- |
| 1.09 | 0.109 | 0.012 | 0.136 | 0.016 |  | Carbonic anhydrase I, Homo sapiens (scaffold) (from UniProt P00915 5-261) (enzyme) |
|  |  |  |  |  | 152 | FAAAE (peptide) |
